Assay results as given in US20220298218A1 (ANTAG THERAPEUTICS, published 2022).
*1 amine or outer side, *2 acyl side, *3 side chain or, on linkers, in order; H or OH if unused. Where no end group is shown, it is not given here. Side-chain parts run from the residue outwards. The star is where a group is joined. C18 diacid = O=C(O)CCCCCCCCCCCCCCCCC(=O)*; C16 diacid = O=C(O)CCCCCCCCCCCCCCC(=O)*; γGlu = O=C(O)[C@H](CCC(=O)[*:2])N[*:1]; AEEA = NCCOCCOCC(=O)O

T1: human GIP receptor (human, UniProt P48546 22-466)
T1 sequence (looked up): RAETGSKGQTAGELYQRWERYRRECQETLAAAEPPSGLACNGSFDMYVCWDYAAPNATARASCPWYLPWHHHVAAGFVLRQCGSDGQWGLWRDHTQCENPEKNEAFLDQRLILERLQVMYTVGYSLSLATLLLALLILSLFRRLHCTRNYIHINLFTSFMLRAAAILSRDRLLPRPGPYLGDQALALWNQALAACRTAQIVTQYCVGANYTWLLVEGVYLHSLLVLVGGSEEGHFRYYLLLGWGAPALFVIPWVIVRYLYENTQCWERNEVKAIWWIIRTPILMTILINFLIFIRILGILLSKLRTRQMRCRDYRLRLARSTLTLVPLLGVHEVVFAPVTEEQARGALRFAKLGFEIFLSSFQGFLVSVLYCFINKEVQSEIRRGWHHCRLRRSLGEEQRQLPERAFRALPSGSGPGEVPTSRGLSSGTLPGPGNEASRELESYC

B1: AT428 (peptide)
peptide: TFISDYK([AEEA-AEEA-AEEA-γGlu-C16 diacid])IAMDRIHQQDFVNWLLAQRGRRNDW-OH
modifications: N-terminus assumed
SMILES: CC[C@H](C)[C@H](NC(=O)[C@H](CCCCNC(=O)COCCOCCNC(=O)COCCOCCNC(=O)COCCOCCNC(=O)CC[C@H](NC(=O)CCCCCCCCCCCCCCC(=O)O)C(=O)O)NC(=O)[C@H](Cc1ccc(O)cc1)NC(=O)[C@H](CC(=O)O)NC(=O)[C@H](CO)NC(=O)[C@@H](NC(=O)[C@H](Cc1ccccc1)NC(=O)[C@@H](N)[C@@H](C)O)[C@@H](C)CC)C(=O)N[C@@H](C)C(=O)N[C@@H](CCSC)C(=O)N[C@@H](CC(=O)O)C(=O)N[C@@H](CCCNC(=N)N)C(=O)N[C@H](C(=O)N[C@@H](Cc1c[nH]cn1)C(=O)N[C@@H](CCC(N)=O)C(=O)N[C@@H](CCC(N)=O)C(=O)N[C@@H](CC(=O)O)C(=O)N[C@@H](Cc1ccccc1)C(=O)N[C@H](C(=O)N[C@@H](CC(N)=O)C(=O)N[C@@H](Cc1c[nH]c2ccccc12)C(=O)N[C@@H](CC(C)C)C(=O)N[C@@H](CC(C)C)C(=O)N[C@@H](C)C(=O)N[C@@H](CCC(N)=O)C(=O)N[C@@H](CCCNC(=N)N)C(=O)NCC(=O)N[C@@H](CCCNC(=N)N)C(=O)N[C@@H](CCCNC(=N)N)C(=O)N[C@@H](CC(N)=O)C(=O)N[C@@H](CC(=O)O)C(=O)N[C@@H](Cc1c[nH]c2ccccc12)C(=O)O)C(C)C)[C@@H](C)CC
B2: AT368 (peptide)
peptide: TFISDYKIAMDKIHQQDFVNWLLAQKGKKNDWKHNITQ
HELM: PEPTIDE1{T.F.I.S.D.Y.K.I.A.M.D.K.I.H.Q.Q.D.F.V.N.W.L.L.A.Q.K.G.K.K.N.D.W.K.H.N.I.T.Q}|PEPTIDE2{[O=C(O)CCCCCCCCCCCCCCC(=O)[*:2]].[gGlu]}$PEPTIDE1,PEPTIDE2,7:R3-2:R2$$$V2.0; N-terminus assumed
SMILES: CC[C@H](C)[C@H](NC(=O)[C@H](CCCCNC(=O)CC[C@H](NC(=O)CCCCCCCCCCCCCCC(=O)O)C(=O)O)NC(=O)[C@H](Cc1ccc(O)cc1)NC(=O)[C@H](CC(=O)O)NC(=O)[C@H](CO)NC(=O)[C@@H](NC(=O)[C@H](Cc1ccccc1)NC(=O)[C@@H](N)[C@@H](C)O)[C@@H](C)CC)C(=O)N[C@@H](C)C(=O)N[C@@H](CCSC)C(=O)N[C@@H](CC(=O)O)C(=O)N[C@@H](CCCCN)C(=O)N[C@H](C(=O)N[C@@H](Cc1c[nH]cn1)C(=O)N[C@@H](CCC(N)=O)C(=O)N[C@@H](CCC(N)=O)C(=O)N[C@@H](CC(=O)O)C(=O)N[C@@H](Cc1ccccc1)C(=O)N[C@H](C(=O)N[C@@H](CC(N)=O)C(=O)N[C@@H](Cc1c[nH]c2ccccc12)C(=O)N[C@@H](CC(C)C)C(=O)N[C@@H](CC(C)C)C(=O)N[C@@H](C)C(=O)N[C@@H](CCC(N)=O)C(=O)N[C@@H](CCCCN)C(=O)NCC(=O)N[C@@H](CCCCN)C(=O)N[C@@H](CCCCN)C(=O)N[C@@H](CC(N)=O)C(=O)N[C@@H](CC(=O)O)C(=O)N[C@@H](Cc1c[nH]c2ccccc12)C(=O)N[C@@H](CCCCN)C(=O)N[C@@H](Cc1c[nH]cn1)C(=O)N[C@@H](CC(N)=O)C(=O)N[C@H](C(=O)N[C@H](C(=O)N[C@@H](CCC(N)=O)C(=O)O)[C@@H](C)O)[C@@H](C)CC)C(C)C)[C@@H](C)CC
B3: AT443 (peptide)
peptide: TFISDYK([AEEA-AEEA-γGlu-C16 diacid])IAMDRIHQQDFVNWLLAQRGPSSGAPPPS-OH
modifications: N-terminus assumed
SMILES: CC[C@H](C)[C@H](NC(=O)[C@H](CCCCNC(=O)COCCOCCNC(=O)COCCOCCNC(=O)CC[C@H](NC(=O)CCCCCCCCCCCCCCC(=O)O)C(=O)O)NC(=O)[C@H](Cc1ccc(O)cc1)NC(=O)[C@H](CC(=O)O)NC(=O)[C@H](CO)NC(=O)[C@@H](NC(=O)[C@H](Cc1ccccc1)NC(=O)[C@@H](N)[C@@H](C)O)[C@@H](C)CC)C(=O)N[C@@H](C)C(=O)N[C@@H](CCSC)C(=O)N[C@@H](CC(=O)O)C(=O)N[C@@H](CCCNC(=N)N)C(=O)N[C@H](C(=O)N[C@@H](Cc1c[nH]cn1)C(=O)N[C@@H](CCC(N)=O)C(=O)N[C@@H](CCC(N)=O)C(=O)N[C@@H](CC(=O)O)C(=O)N[C@@H](Cc1ccccc1)C(=O)N[C@H](C(=O)N[C@@H](CC(N)=O)C(=O)N[C@@H](Cc1c[nH]c2ccccc12)C(=O)N[C@@H](CC(C)C)C(=O)N[C@@H](CC(C)C)C(=O)N[C@@H](C)C(=O)N[C@@H](CCC(N)=O)C(=O)N[C@@H](CCCNC(=N)N)C(=O)NCC(=O)N1CCC[C@H]1C(=O)N[C@@H](CO)C(=O)N[C@@H](CO)C(=O)NCC(=O)N[C@@H](C)C(=O)N1CCC[C@H]1C(=O)N1CCC[C@H]1C(=O)N1CCC[C@H]1C(=O)N[C@@H](CO)C(=O)O)C(C)C)[C@@H](C)CC
B4: AT430 (peptide)
peptide: TFISDYK([AEEA-AEEA-AEEA-γGlu-C18 diacid])IAMDRIHQQDFVNWLLAQRGRRNDW-OH
modifications: N-terminus assumed
SMILES: CC[C@H](C)[C@H](NC(=O)[C@H](CCCCNC(=O)COCCOCCNC(=O)COCCOCCNC(=O)COCCOCCNC(=O)CC[C@H](NC(=O)CCCCCCCCCCCCCCCCC(=O)O)C(=O)O)NC(=O)[C@H](Cc1ccc(O)cc1)NC(=O)[C@H](CC(=O)O)NC(=O)[C@H](CO)NC(=O)[C@@H](NC(=O)[C@H](Cc1ccccc1)NC(=O)[C@@H](N)[C@@H](C)O)[C@@H](C)CC)C(=O)N[C@@H](C)C(=O)N[C@@H](CCSC)C(=O)N[C@@H](CC(=O)O)C(=O)N[C@@H](CCCNC(=N)N)C(=O)N[C@H](C(=O)N[C@@H](Cc1c[nH]cn1)C(=O)N[C@@H](CCC(N)=O)C(=O)N[C@@H](CCC(N)=O)C(=O)N[C@@H](CC(=O)O)C(=O)N[C@@H](Cc1ccccc1)C(=O)N[C@H](C(=O)N[C@@H](CC(N)=O)C(=O)N[C@@H](Cc1c[nH]c2ccccc12)C(=O)N[C@@H](CC(C)C)C(=O)N[C@@H](CC(C)C)C(=O)N[C@@H](C)C(=O)N[C@@H](CCC(N)=O)C(=O)N[C@@H](CCCNC(=N)N)C(=O)NCC(=O)N[C@@H](CCCNC(=N)N)C(=O)N[C@@H](CCCNC(=N)N)C(=O)N[C@@H](CC(N)=O)C(=O)N[C@@H](CC(=O)O)C(=O)N[C@@H](Cc1c[nH]c2ccccc12)C(=O)O)C(C)C)[C@@H](C)CC
B5: AT367 (peptide)
peptide: TFISDYKIAMDKIHQQDFVNWLLAQKGKKNDWKHN
HELM: PEPTIDE1{T.F.I.S.D.Y.K.I.A.M.D.K.I.H.Q.Q.D.F.V.N.W.L.L.A.Q.K.G.K.K.N.D.W.K.H.N}|PEPTIDE2{[O=C(O)CCCCCCCCCCCCCCC(=O)[*:2]].[gGlu]}$PEPTIDE1,PEPTIDE2,7:R3-2:R2$$$V2.0; N-terminus assumed
SMILES: CC[C@H](C)[C@H](NC(=O)[C@H](CCCCNC(=O)CC[C@H](NC(=O)CCCCCCCCCCCCCCC(=O)O)C(=O)O)NC(=O)[C@H](Cc1ccc(O)cc1)NC(=O)[C@H](CC(=O)O)NC(=O)[C@H](CO)NC(=O)[C@@H](NC(=O)[C@H](Cc1ccccc1)NC(=O)[C@@H](N)[C@@H](C)O)[C@@H](C)CC)C(=O)N[C@@H](C)C(=O)N[C@@H](CCSC)C(=O)N[C@@H](CC(=O)O)C(=O)N[C@@H](CCCCN)C(=O)N[C@H](C(=O)N[C@@H](Cc1c[nH]cn1)C(=O)N[C@@H](CCC(N)=O)C(=O)N[C@@H](CCC(N)=O)C(=O)N[C@@H](CC(=O)O)C(=O)N[C@@H](Cc1ccccc1)C(=O)N[C@H](C(=O)N[C@@H](CC(N)=O)C(=O)N[C@@H](Cc1c[nH]c2ccccc12)C(=O)N[C@@H](CC(C)C)C(=O)N[C@@H](CC(C)C)C(=O)N[C@@H](C)C(=O)N[C@@H](CCC(N)=O)C(=O)N[C@@H](CCCCN)C(=O)NCC(=O)N[C@@H](CCCCN)C(=O)N[C@@H](CCCCN)C(=O)N[C@@H](CC(N)=O)C(=O)N[C@@H](CC(=O)O)C(=O)N[C@@H](Cc1c[nH]c2ccccc12)C(=O)N[C@@H](CCCCN)C(=O)N[C@@H](Cc1c[nH]cn1)C(=O)N[C@@H](CC(N)=O)C(=O)O)C(C)C)[C@@H](C)CC
B6: AT420 (peptide)
peptide: SGTFISDYSIAMDKIK([AEEA-AEEA-AEEA-γGlu-C16 diacid])QQDFVNWLLAQKGKKNDW-OH
modifications: N-terminus assumed
SMILES: CC[C@H](C)[C@H](NC(=O)[C@H](CO)NC(=O)[C@H](Cc1ccc(O)cc1)NC(=O)[C@H](CC(=O)O)NC(=O)[C@H](CO)NC(=O)[C@@H](NC(=O)[C@H](Cc1ccccc1)NC(=O)[C@@H](NC(=O)CNC(=O)[C@@H](N)CO)[C@@H](C)O)[C@@H](C)CC)C(=O)N[C@@H](C)C(=O)N[C@@H](CCSC)C(=O)N[C@@H](CC(=O)O)C(=O)N[C@@H](CCCCN)C(=O)N[C@H](C(=O)N[C@@H](CCCCNC(=O)COCCOCCNC(=O)COCCOCCNC(=O)COCCOCCNC(=O)CC[C@H](NC(=O)CCCCCCCCCCCCCCC(=O)O)C(=O)O)C(=O)N[C@@H](CCC(N)=O)C(=O)N[C@@H](CCC(N)=O)C(=O)N[C@@H](CC(=O)O)C(=O)N[C@@H](Cc1ccccc1)C(=O)N[C@H](C(=O)N[C@@H](CC(N)=O)C(=O)N[C@@H](Cc1c[nH]c2ccccc12)C(=O)N[C@@H](CC(C)C)C(=O)N[C@@H](CC(C)C)C(=O)N[C@@H](C)C(=O)N[C@@H](CCC(N)=O)C(=O)N[C@@H](CCCCN)C(=O)NCC(=O)N[C@@H](CCCCN)C(=O)N[C@@H](CCCCN)C(=O)N[C@@H](CC(N)=O)C(=O)N[C@@H](CC(=O)O)C(=O)N[C@@H](Cc1c[nH]c2ccccc12)C(=O)O)C(C)C)[C@@H](C)CC

Target: T1, human GIP receptor
Assay: cell-based or functional assay

Binder | cAMP antagonism [nM] | cAMP antagonism % inhib [%] | cAMP antagonism log [log M]
B1 | 296 | 90 | -6.5
B2 | 9 | 100 | -8.1
B3 | 171 | 100 | -6.8
B4 | 153 | 100 | -6.8
B5 | 6 | 100 | -8.3
B6 | 237 | 100 | -6.6
